What was measured:
primary CLL cells = assay: Apoptosis in freshly isolated CLL cells after depsipeptide; type: cell-based, human; settings: depsipeptide 10 nM 16 h, then 6 h ligand or antibody, FIG. 2C
Method: After exposure of the cells for 30 min, DISC complexes were isolated and analyzed for the indicated proteins by Western blotting. To provide an unstimulated receptor control (u/s), biotinylated wt or mutant TRAIL was added to lysate from untreated cells. C: Freshly isolated cells from patients with CLL were incubated for 16 h either alone or in the presence of depsipeptide (10 nM). […] The different symbols used indicate data from six individual patients and the solid line indicates the Mean.
(§1) Ramos, an Epstein-Barr virus-negative Burkitt's lymphoma cell line, and Jurkat T cells (clone E6-1) were cultured as described (MacFarlane et al (2005 Cell Death and Differentiation vol 12 pages 773-782)). Blood samples were obtained from CLL patients, with patient consent and local ethical committee approval and CLL cells purified as described (MacFarlane et al (2002 Oncogene 21, 6809-6818). Cells were incubated for 16 h with depsipeptide (10 nM), provided by Dr. E. Sausville (NCI, USA). Cells were then cultured for a further 6 h with either HGSETR1 or HGS-ETR2, agonistic mAbs to TRAIL-R1 or -R2, respectively (Human Genome Sciences, Rockville, Md.), His-TRAIL-LE (a recombinant TRAIL with low endotoxin—Alexis Corporation, Nottingham, UK), His-TRAIL, a similar form of human recombinant TRAIL (MacFarlane et al (1997 J Biol Chem 272, 25417-25420)) but not further purified to reduce endotoxin levels or a mutant form of His-TRAIL as described (MacFarlane et al., 2005 ibid.). Cell lines were also pre-incubated for 30 min with a TRAIL-R1 blocking Ab and a TRAIL-R2 neutralizing Ab from Alexis and R&D systems, respectively, prior to exposure to TRAIL. Freshly isolated cells from patients with MCL were isolated, purified and incubated with different forms of TRAIL as described above for CLL cells. Samples were either analyzed immediately for apoptosis or stored at −80° C. for subsequent Western blotting. Other methods and reagents were as described (Inoue (2004 Cell Death Differ 11 Suppl 2, S193-206); MacFarlane et al., 2005 ibid).
(§2) Apoptosis was quantified by phosphatidylserine (PS) externalization in the presence of propidium iodide as described (MacFarlane et al., 2002 ibid.). Samples for Western blot analysis were prepared and caspase processing detected as described (Inoue et al., 2004 ibid.; MacFarlane et al., 2005 ibid.).

Jurkat cells = assay: Caspase-8 and -3 processing by Western blot in Jurkat cells; type: cell-based; settings: FIG. 1D
Method: (§3) Cells were also exposed to HGS-ETR1 or HGSETR2 (1 μg ml^−1). C: Ramos or Jurkat cells were pre-incubated for 30 min either alone or with TRAIL-R1 blocking Ab or TRAIL-R2 neutralizing Ab (5 μg ml^−1). […] D: Ramos and Jurkat cells were exposed to wt TRAIL or TRAIL mutants as described above and processing of caspase-3 and -8 determined by Western blot analysis. The asterisk indicates a non-specific band. The lower panel of the blot for detection of the caspase-8 p18 subunit was exposed for twice as long as the upper panel. Apoptosis was assessed by phosphatidylserine externalization and results expressed as the Means±SEM of at least 3 separate determinations.
as §2
(§4) To confirm that the mutants were inducing apoptosis, we examined their effects on the processing of caspase-8, the apical caspase in death receptor-induced apoptosis and caspase-3, an effector caspase.

Ramos cells [1] = assay: Apoptosis by phosphatidylserine (PS) externalization in Ramos cells; type: cell-based; settings: for ability to induce apoptosis in Ramos cells (in words): PS externalization, compared with wt TRAIL
Method: as §3, §1, §2
Ramos and Jurkat T cells (clone E6-1) were cultured as described (MacFarlane et al, 2005 ibid.). The breast tumour cell line, MCF-7 (clone F43) was cultured as described previously (MacFarlane et al., 2000 J. Cell Biol. 148, 1239-1254). Cells were cultured for either 4 h (Ramos and Jurkat) or 6 h (MCF-7) with His-TRAIL (MacFarlane et al, 1997 J Biol Chem 272, 25417-25420), HGS-ETR1 or HGS-ETR2 (Human Genome Sciences), or a mutant form of His-TRAIL (MacFarlane et al, 2005 ibid.). Samples were analyzed for apoptosis, Western blotting, or TRAIL DISC activation as described (MacFarlane et al, 2005 ibid.; MacFarlane et al. 2002 Oncogene 21, 6809-6818). Mutants of His-TRAIL (residues 95-281) were generated using the Quik-Change site-directed mutagenesis kit (Stratagene, Calif.), confirmed by DNA sequencing, expressed in E. coli and purified as described (MacFarlane et al, 1997 ibid.). For siRNA targeting of TRAIL-R1/-R2, MCF-7 cells were seeded into six-well plates immediately prior to effectene-mediated RNAi transfection with either a negative control siRNA (30 nM, Ambion, #4611), or preannealed siRNA oligonucleotides for TRAIL-R1 or TRAIL-R2 (30 nM, Ambion), with the sequence and validity described (Ren et al, 2004 Mol. Biol. Cell vol 15 pp 5064-5074). After 40 h of transfection the cells were collected and total TRAIL-R1 or TRAIL-R2 levels assessed. […]

Ramos cells [2] = assay: Caspase-8 and -3 processing by Western blot in Ramos cells; type: cell-based; settings: FIG. 1D
Method: as §3, §2, §4

Row | Molecule | sensitization of CLL cells to induced apoptosis by depsipeptide (primary CLL cells) | processing of caspases-8 and -3 (Jurkat cells) | inhibition of ligand-induced apoptosis by receptor blocking antibodies (Ramos cells [1]; 30 min pre-incubation with TRAIL-R1 blocking Ab or TRAIL-R2 neutralizing Ab (5 μg ml^−1)) | concentration-response of apoptosis compared with wt TRAIL (Ramos cells [1]; 4 h, FIG. 1B) | % PS+ cells, Ramos (Ramos cells [1]; 4 h exposure, 500 ng ml^−, Mean ± SEM of at least three determinations) [%] | ability to induce apoptosis in Ramos cells (in words) (Ramos cells [1]) | processing of caspase-8 and caspase-3 (Ramos cells [2])
1 | TRAIL.R1-5: 6His TRAIL 95-281 with 193Ser, 199Val, 201Arg, 213Trp and 215Asp (protein, biotin (site not stated) in the DISC analysis only; not biotinylated in the apoptosis assays, 6His TRAIL 95-281 with 193Ser, 199Val, 201Arg, 213Trp and 215Asp) TSEETISTVQEKQQNISPLVRERGPQRVAAHITGTRGRSNTLSSPNSKNEKALGRKINSWESSRSGHSFLSNLHLRNGELVIHEKGFYYIYSQTYFRFSEEIKEVTRNDKQMVQYIYKWTDYPDPILLMKSARNSCWSKDAEYGLYSIYQGGIFELKENDRIFVSVTNEHLIDMDHEASFFGAFLVG | sensitized CLL cells | small amount of caspase processing | blocking antibody specific to TRAIL-R1 but not to TRAIL-R2 to inhibit apoptosis | very similar concentration-response to wt TRAIL | 35.9 ± 6.4 | retained most of the activity of wt TRAIL | induced the processing
2 | HGS-ETR2 (antibody, INN chains, looked up, V domains shown) VH: EVQLVQSGGGVERPGGSLRLSCAASGFTFDDYGMSWVRQAPGKGLEWVSGINWNGGSTGYADSVKGRVTISRDNAKNSLYLQMNSLRAEDTAVYYCAKILGAGRGWYFDLWGKGTTVTVSS VL: SSELTQDPAVSVALGQTVRITCQGDSLRSYYASWYQQKPGQAPVLVIYGKNNRPSGIPDRFSGSSSGNTASLTITGAQAEDEADYYCNSRDSSGNHVVFGGGTKLTVL | not | most potent | – | – | – | not in Ramos cells | not
